# T1: biotinylated ERα36 (chemically synthesised target peptide, SEQ ID NO:2) (human, labeled with biotin (site not stated))
# T1 construct: also called biotinylated ER36; biotinylated ERα36 peptides
# T1 peptide: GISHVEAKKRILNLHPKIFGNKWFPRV
# T2: recombinant human ERα36 (hER-α36, SEQ ID NO:1) expressed in HEK293 cells (human, UniProt P03372 174-457)
# T2 construct: Present in lysates of ERα36-expressing HEK293 cells, separated by SDS-PAGE and blotted on PVDF (Western blot); also called recombinant ERα36
# T2 sequence: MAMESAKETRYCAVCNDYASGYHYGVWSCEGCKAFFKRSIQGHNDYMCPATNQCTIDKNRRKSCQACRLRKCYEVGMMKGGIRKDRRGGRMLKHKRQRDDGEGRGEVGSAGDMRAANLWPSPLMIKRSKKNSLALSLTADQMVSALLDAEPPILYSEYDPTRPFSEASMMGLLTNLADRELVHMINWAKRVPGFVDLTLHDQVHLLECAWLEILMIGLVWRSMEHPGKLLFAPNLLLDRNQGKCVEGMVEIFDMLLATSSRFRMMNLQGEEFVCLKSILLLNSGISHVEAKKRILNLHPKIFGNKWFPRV
# Experiments:
# [1] = biological target: T1, biotinylated ERα36 (chemically …); assay: ELISA on biotinylated ERα36 (streptavidin plate), ScFv 0.28 µg/ml, well 2
# Protocol: (§1) Streptavidin-coated 96-well plates were washed twice with PBS. Biotinylated ERα36 (final concentration of 20 μg/ml) was added into each testing well. The plates were incubated for 2 h at room temperature and washed three times with PBST. Re-natured ScFv samples (100 μl, S14A1r1, S24A2r2, S33A2r1, S41A3r3, S53A1r1, S66A1r1 and S72A2r1) were added into the testing wells respectively. Each ScFv was diluted five times in five gradients, and two parallel wells were loaded with each ScFv at each gradient. The plates were incubated at 37° C. for 1 h. The plates were washed three times with PBST, followed by addition of 100 μl anti-His-6 mouse monoclonal antibody (1:2000 dilution) per well and 1 h incubation at 37° C. The plates were washed three times with PBST, followed by addition of 100 μl goat anti-mouse-HRP (1:2500 dilution) per well and 1 h incubation at 37° C. The plates were washed six times with PBST, followed by addition of 100 μl OPD to develop under the protection from light. The reactions were terminated by adding 50 μl 2M H₂SO₄ to each well, and data were collected by microplate reader at 490 nm.
# (§2) One positive control and three negative controls were performed in parallel. The positive control used rabbit anti-ER multi-clonal antibody serum in replacement of the ScFv re-natured sample and goat-anti-rabbit-HRP in replacement of goat-anti-mouse HRP.
# [2] = biological target: T1, biotinylated ERα36 (chemically …); assay: ELISA on biotinylated ERα36 (streptavidin plate), ScFv 0.28 µg/ml, well 1
# Protocol: as §1, §2
# [3] = biological target: T2, recombinant human ERα36 (hER-α36, SEQ …); assay: Western blot on lysates of ERα36-expressing HEK293 cells, anti-His-HRP
# Protocol: ScFv1˜ScFv7 obtained after purification and renaturation were characterized using Western Blot. HEK293 cells were artificially constructed to express recombinant ERα36. Human breast cancer cells SK-BR-3 and ERα36-expressing HEK293 cells were cultured, harvested, and lysed by lysis buffer to obtain the cell lysates respectively. 20 μg/lane of the lysates were then loaded for SDS-PAGE. After electrophoresis, the protein samples were electronically transferred to PVDF membrane labeled with ScFv1˜ScFv7 respectively. The membranes were blocked with non-fat milk and anti-His-HRP was added to show the resulting images (FIG. 16).
# [4] = biological target: T1, biotinylated ERα36 (chemically …); assay: phage ELISA, biotinylated ERα36 on neutravidin plate, well 2
# Protocol: (§3) Neutravidin-coated plates (purchased from Pierce) were washed with washing buffer (PBS containing 0.1% Tween-20) and all wells of the plates were blocked by incubating in blocking buffer at 4° C. for 1-2 h. Then the blocked plates were taken away from the blocking buffer, washed six times with washing buffer and dried upside-down. Biotinylated ERα36 in PBS (100 μl) was added to each testing well of the plates, incubated for 1-2 h at room temperature and removed. The plates were washed once with washing buffer. Phage solution (100 μl) was added per well and incubated for 1-2 h at room temperature. The plates were washed six times with the washing buffer. HRP-conjugated rabbit anti-M13 antibody (purchased from GE Healthcare) was diluted by 1:5,000 in blocking buffer. The diluted HRP-conjugated rabbit anti-M13 antibody (100 μl) was added to each well and incubated for 1 h at room temperature followed by washing six times with washing buffer.
# (§4) HRP substrate solution (100 μl) was added to each testing well and incubated for 30 min at room temperature. The signals were detected using a microplate reader at 490 nm. […] The positive controls were plates coated with M13 phage and detected with HRP-conjugated anti-M13 antibodies.
# [5] = biological target: T1, biotinylated ERα36 (chemically …); assay: phage ELISA, biotinylated ERα36 on neutravidin plate, well 1
# Protocol: as §3, §4
# [6] = biological target: T1, biotinylated ERα36 (chemically …); assay: phage ELISA, biotinylated ERα36 on neutravidin plate, well 3
# Protocol: as §3, §4
Binder,OD490 [1],OD490 [2],binding result [3],ELISA Signal (OD490) [4],ELISA Signal (OD490) [5],ELISA Signal (OD490) [6]
"human anti-ERα36 ScFv2 (purified, re-natured) (scFv, also called S24; S24A2r2) scFv: QSALTQPASVSGSPGQSITISCTGTSSDVGGYNYVSWYQQHPGKAPKLMIYDVSKRPSGVSNRFSGSKSGNTASLTISGLQAEDEADYYCSSYTSSSTLVFGGGTKLTVLGSGGSTITSYNVYYTKLSSSGTQVQLLESGAEVKKPGASVKVSCKASGYTFTAYYMHWVRQAPGQGLEWMAMIDPSGSITSYAQKFQGRVTMSRDTSTSTLYMELSSLRSDDTAVYYCARDLKEGFSVPGAFDIWGQGTMVTVSSAS",0.09 OD490,0.093 OD490,binds,–,–,–
"human anti-ERα36 ScFv3 (purified, re-natured) (scFv, also called S33; S33A2r1) scFv: QSVLTQPASVSGSPGQSITISCTGTSSDVGGYNYVSWYQQHPGKAPKLMIYDVSKRPSGVSNRFSGSKSGNTASLTISGLQAEDEADYYCSSYTSSSTLVFGGGTKLTVLGSGGSTITSYNVYYTKLSSSGTEVQLVQSGGGVAQPGRSLRLSCAASGITFNSYGMHWVRQAPGKGLEWVAVMPYDGSNEYYADSVKGRFTISRDNSKNTLYLQMNSLRAEDTAVYYCAKGSGMVQLWADAFDVWGQGTMVTVSSAS",0.171 OD490,0.159 OD490,binds,–,–,–
"human anti-ERα36 ScFv7 (purified, re-natured) (scFv, also called S72; S72A2r1) scFv: QSVLTQPPSVSAAPGQKVTISCSGSSSNIGNNYVSWYQQLPGTAPKLLIYDNNKRPSGIPDRFSGSKSGTSATLGITGLQTGDEADYYCGTWDSSLSAGVFGGGTKLTVLGSGGSTITSYNVYYTKLSSSGTEVQLVQSGGGLVQPGRSLRLSCAASGFTFDDYAMHWVRQAPGKGLEWVSGISWNSGSIGYADSVKGRFTISRDNAKNSLYLQMNSLRAEDTALYYCAKEGDSSGWSPDYWGQGTLVTVSSAS",–,–,binds,–,–,–
"phage-displayed ScFv7 (phage clone 12) (scFv, The phage coat protein fusion partner is not described; also called phage single clone No. 12) scFv: QSVLTQPPSVSAAPGQKVTISCSGSSSNIGNNYVSWYQQLPGTAPKLLIYDNNKRPSGIPDRFSGSKSGTSATLGITGLQTGDEADYYCGTWDSSLSAGVFGGGTKLTVLGSGGSTITSYNVYYTKLSSSGTEVQLVQSGGGLVQPGRSLRLSCAASGFTFDDYAMHWVRQAPGKGLEWVSGISWNSGSIGYADSVKGRFTISRDNAKNSLYLQMNSLRAEDTALYYCAKEGDSSGWSPDYWGQGTLVTVSSAS",–,–,–,0.388 OD490,0.381 OD490,0.383 OD490
"human anti-ERα36 ScFv6 (purified, re-natured) (scFv, also called S66; S66A1r1) scFv: EIVMTQSPGTLSLSPGERATLSCRASQSVDSNFLAWYQQRPGQAPRLLIYGVSSSATGIPDRFSGSGSGTDFTLSIDRLEPEDFAVYYCQQYGSSPTFGGGTKLEIKRSGGSTITSYNVYYTKLSSSGTQVQLQESGGGLVQPGRSLRLSCAASGFTFDDYAMHWVRQAPGKGLEWVSGISWNSGSIGYADSVKGRFTISRDNAKNSLYLQMNSLRAEDTAVYYCARSGDYGAFDIWGQGTMVTVSSAS",–,–,binds,–,–,–
